Source: US20240084003A1 (SIMCERE ZAIMING PHARMACEUTICAL, published 2024)

T1: human CD22-ECD-His protein (human, UniProt P20273 20-687)
T1 construct: Made in house in HEK293E; also called hCD22-ECD-His; recombinant human CD22-ECD His protein; not shown: His tag
T1 sequence: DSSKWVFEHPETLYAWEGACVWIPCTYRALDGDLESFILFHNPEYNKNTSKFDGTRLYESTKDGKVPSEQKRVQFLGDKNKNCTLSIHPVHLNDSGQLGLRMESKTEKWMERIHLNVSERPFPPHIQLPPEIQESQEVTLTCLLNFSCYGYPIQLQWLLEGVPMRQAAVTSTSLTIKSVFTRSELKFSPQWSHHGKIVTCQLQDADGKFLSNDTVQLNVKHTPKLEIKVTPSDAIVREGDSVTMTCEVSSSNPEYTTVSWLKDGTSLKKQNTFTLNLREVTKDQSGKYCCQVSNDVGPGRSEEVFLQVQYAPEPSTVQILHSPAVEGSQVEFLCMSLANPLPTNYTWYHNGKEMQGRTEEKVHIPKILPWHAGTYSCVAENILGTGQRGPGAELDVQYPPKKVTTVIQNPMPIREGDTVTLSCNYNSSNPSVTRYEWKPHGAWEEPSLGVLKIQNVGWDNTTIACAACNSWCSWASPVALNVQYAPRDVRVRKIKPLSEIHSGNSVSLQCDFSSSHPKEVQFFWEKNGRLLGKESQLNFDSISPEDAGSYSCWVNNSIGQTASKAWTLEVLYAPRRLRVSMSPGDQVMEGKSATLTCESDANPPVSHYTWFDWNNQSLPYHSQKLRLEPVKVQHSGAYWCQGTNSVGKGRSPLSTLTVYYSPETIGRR

T2: human CD22 domain1-4-His (human, UniProt P20273 20-425)
T2 construct: also called hCD22 domain1-4-His; not shown: His tag
T2 sequence: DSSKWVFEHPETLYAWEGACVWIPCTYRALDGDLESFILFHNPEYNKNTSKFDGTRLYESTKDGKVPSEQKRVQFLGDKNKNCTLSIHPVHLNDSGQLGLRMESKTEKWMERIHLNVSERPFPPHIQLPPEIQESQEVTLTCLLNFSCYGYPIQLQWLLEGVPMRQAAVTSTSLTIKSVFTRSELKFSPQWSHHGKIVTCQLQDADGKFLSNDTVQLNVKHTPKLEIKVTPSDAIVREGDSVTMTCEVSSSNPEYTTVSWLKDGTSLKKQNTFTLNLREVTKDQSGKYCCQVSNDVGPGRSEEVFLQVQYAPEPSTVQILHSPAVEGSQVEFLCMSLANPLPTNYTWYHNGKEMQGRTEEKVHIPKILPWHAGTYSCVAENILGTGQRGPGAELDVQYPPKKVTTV

T3: murine CD22 protein (ACROBiosystems, SI2-M52Ha) (murine, UniProt P35329 22-708)
T3 construct: extracellular domain; also called murine CD22-ECD; murine CD22-ECD-His
T3 sequence (looked up): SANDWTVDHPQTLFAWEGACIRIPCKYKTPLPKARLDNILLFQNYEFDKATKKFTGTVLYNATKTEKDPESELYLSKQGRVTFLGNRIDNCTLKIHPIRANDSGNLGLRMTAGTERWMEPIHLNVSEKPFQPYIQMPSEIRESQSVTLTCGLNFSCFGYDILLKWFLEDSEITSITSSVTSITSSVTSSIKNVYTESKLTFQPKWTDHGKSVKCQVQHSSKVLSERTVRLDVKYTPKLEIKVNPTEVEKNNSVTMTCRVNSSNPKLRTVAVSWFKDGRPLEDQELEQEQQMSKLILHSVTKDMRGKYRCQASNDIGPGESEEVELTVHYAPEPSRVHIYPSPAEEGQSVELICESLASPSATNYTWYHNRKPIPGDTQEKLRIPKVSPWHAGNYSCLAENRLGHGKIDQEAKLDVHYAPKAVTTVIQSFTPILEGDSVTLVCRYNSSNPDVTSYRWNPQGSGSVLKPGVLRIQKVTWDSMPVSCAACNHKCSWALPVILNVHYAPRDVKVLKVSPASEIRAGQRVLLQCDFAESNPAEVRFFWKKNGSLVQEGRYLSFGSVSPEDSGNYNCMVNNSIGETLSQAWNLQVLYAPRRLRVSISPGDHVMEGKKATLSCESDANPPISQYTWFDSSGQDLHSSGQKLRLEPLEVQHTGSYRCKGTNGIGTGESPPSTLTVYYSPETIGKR


What was measured:
[1] = target: T1, human CD22-ECD-His protein; assay: ELISA, Ab 0.001 nM
In short: (§1)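 Binding of chimeric anti-CD22 antibodies was detected by indirect ELISA on CD22-ECD-His coated at 2 μg/mL, with HRP secondary and TMB substrate.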

[2] = target: T1, human CD22-ECD-His protein; assay: ELISA, Ab 0.10 nM
In short: as §1

human CD22 domain1-4-His = target: T2, human CD22 domain1-4-His; assay: ELISA, human CD22 domain1-4-His coated
[3] = target: T1, human CD22-ECD-His protein; assay: ELISA, human CD22-ECD-His coated
In short: as §1

[4] = target: T3, murine CD22 protein (ACROBiosystems, …); assay: ELISA, murine CD22-ECD-His coated
In short: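 Plates were coated overnight at 4° C with 2 μg/mL CD22 protein in PBS and blocked with PBS + 2% BSA. Chimeric antibodies were incubated for 2 h at 37° C, then HRP-labelled secondary for 2 h at 37° C. Bound antibody was read by TMB colour development (30 min, RT) stopped with 1.0 N HCl.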

[5] = target: T1, human CD22-ECD-His protein; assay: ELISA, Ab 0.01 nM
In short: as §1

[6] = target: T1, human CD22-ECD-His protein; assay: ELISA, Ab 100.00 nM
In short: as §1

Binder	OD450 [1]	OD450 [2]	EC50 (read off the curve) (human CD22 domain1-4-His)	EC50 (read off the curve) [3]	binding result [4]	OD450 [5]	OD450 [6]	binding result (human CD22 domain1-4-His)
HA22-hIgG1 (antibody, V domains shown) VH: EVQLVESGGGLVKPGGSLKLSCAASGFAFSIYDMSWVRQTPEKCLEWVAYISSGGGTTYYPDTVKGRFTISRDNAKNTLYLQMSSLKSEDTAMYYCARHSGYGTHWGVLFAYWGQGTLVTVSA VL: DIQMTQTTSSLSASLGDRVTISCRASQDISNYLNWYQQKPDGTVKLLIYYTSILHSGVPSRFSGSGSGTDYSLTISNLEQEDFATYFCQQGNTLPWTFGCGTKLEIKR	0.89 OD450	2.57 OD450	~0.06 nM	~0.02 nM	no binding (tested: 100 nM)	2.12 OD450	2.65 OD450	–
F1.105.11 (antibody, human IgG1, kappa, V domains shown, Human-murine chimeric IgG1, kappa) VH: EVQLQQSGPVLVKPGASVKMSCKASGYTFSDYFMNWVKQSHGKSLEWIGIINSYSGGTSYNQKFKGKATLTVDKSSSTAYMELNSLTSEDSAVYYCARWMDYWGQGTSVTVSS VL: DVQITQSPSYLAASPGETITINCRTSESISKHLAWYQEKPGKTNKLLIYSGSTLQSGIPSRFSGSGSGTDFTLTISSLEPEDFAMYYCQQHNEYPWTFGGGTKLEIKR	0.53 OD450	2.52 OD450	–	~0.04 nM	no binding (tested: 100 nM)	1.93 OD450	2.79 OD450	no binding (tested: 100 nM)
F1.224.1 (antibody, human IgG1, kappa, V domains shown, Human-murine chimeric IgG1, kappa) VH: EVLLHQSGPELVKPGASVKISCKASGYTFTDFNMDWVRQRHGQSLEWIGDVNPNNGGTIYNQKFKGKATLTVDKSSSTVYMDLRSLTSDDTAVYYCVRLGTSDYGEAWFISWGQGTVVTVSA VL: DIVLTQSPASLAVSLGQRATISCRASQSVSTPRYSFMHWYQQKPGQPPKLLIKYASNLESGFPARFTGSGSGTDFTLNIHPVEEEDTAAYYCQQSWAIPWTFGGGTKLEIKR	1.08 OD450	2.37 OD450	~0.03 nM	~0.02 nM	no binding (tested: 100 nM)	2.21 OD450	3.12 OD450	–
F1.120.15 (antibody, human IgG1, kappa, V domains shown, Human-murine chimeric IgG1, kappa) VH: QVQLQQSGPELVKPGASVKISCKASGNAFSNSWMNWVKQRPGKGLEWIGRVYSEDGDTQYNGKFRDKATLTADRSTSTAYMQLSSLTSEDSAVYFCARWLIYYGTYGAMDYWGQGTSVTVSS VL: DIQMTQTTSSLSASLGDRVTISCRASQDINNYLNWYHQKPDGTVKLLIYFTSRPYSGVPSRFSGSGSGTDYSLTISNLEQEDIATYFCQQGNTLPWTFGGGTKLEIKR	1.21 OD450	2.63 OD450	~0.2 nM	~0.02 nM	no binding (tested: 100 nM)	2.28 OD450	2.89 OD450	–
F1.216.2 (antibody, human IgG1, kappa, V domains shown, Human-murine chimeric IgG1, kappa) VH: QVQLQQSGPEVVRPGASVKISCKASGYAFSSSWMNWMKQRPGKALEWIGRIYPGDGDTNYSGEFKVKATLTADKSSSTAYMQLSSLTSEDSAVYFCAREGSYYSNPWYFDYWGQGTTLTVSS VL: DVLVTQTPLSLPVSLGDQASISCRSSQSIVQSNGDTYLEWYLQKPGQSPKLLIYKVSNRFSGVPDRFSGSGSGTDFTLKISRVEAEDLGVYYCFQGSHVPFTFGSGTKLEIKR	1.71 OD450	2.55 OD450	~0.02 nM	~0.006 nM	no binding (tested: 100 nM)	2.48 OD450	2.69 OD450	–
F2.180.16 (antibody, human IgG1, lambda, V domains shown, Human-murine chimeric IgG1, lambda) VH: EVKLVESGGGLVLPGGSLKISCAASGFTFSDYYMYWIRQTPDKRLEWVAYISNTGYSTFYPDSVKGRFTVSRDNAKNTLYLQMSRLQSEDTAMYYCARHGILYAMDYWGQGTSVTVSS VL: QPVLTQSSSASFSLGASAKLTCTLSSQYSTYTIGWYQQQPLKPPKYVMELKHDGSRHTGDGIPDRFSGSSSGADRYLSISNIQPEDEATYICGVGDTIKEQFMYVFGGGTKVTVLG	0.61 OD450	1.8 OD450	–	–	no binding (tested: 100 nM)	1.55 OD450	2.61 OD450	no binding (tested: 100 nM)
